# Measured values published in the nanobody polyreactivity screen of Harvey et al. (2022).
# Test: yeast display, Sf9 membrane polyspecificity reagent, FACS + sequencing; frameworks hold sequencing errors
# Procedure, shortened: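 In a synthetic yeast display library (Saccharomyces cerevisiae BJ5465), nanobody expression was induced with galactose for 36–48 hours. FACS gates were set low and high (top ~1%) using anti-HA fluorescence for expression and streptavidin fluorescence for binding of the Sf9 membrane reagent. Each polyreactivity label is drawn from the gate of origin.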
row,Sequence,polyreactivity (PSR sort gate)
1,QVQLVESGGGLVQAGGSLRLSCAASGSTFEYNAMGWYRQAPGKERELVASSTNYADSVKGRFTISLDNAKNTVYLQMNSLKPEDTAVYYCAREQGVNRNHDYWGQGTQVNVSS,low polyreactivity
2,QDQLVESGGGLVQAGGSLRLSFAASGRTFDRNTMGWYRQAPGKERELVAAISSSGGSTYYADSVKGRFTISRDNAKNTVYLEMNSLIPEDTAVYYCAVLSRQYFRYGYDYCGQGTQVTVSS,high polyreactivity
3,QVQLVESGGGLVQAGGSLRLSCAASGFTFDKKVMGWYRLAPGKERELVAANSVRGGTTYYADSVKGRFTISRDYAKNTVYLQMNSLKPEDSAVYDCAARAYGPPARYESWGQGTQVTVSS,low polyreactivity
4,QVQLVESGGLLVQAGGSIRLRCDASGIILRGYSLGWYRQAPGKERELVASISRGGSTNYADSVKGRFTISRDNAKTTVYLQMNSLKPEDTAVYSCNARGCNGRSDYDYWGLGTQVTVSS,high polyreactivity
5,QVQLVESGGGLVQAGGSLRLSCAASGITLSYNDRGWYRQAHGKEREFVAAITGGGSTYYADSVKGRFTISRDNAKNTVYLQMNSLKPEDTEVYYCAAERWYAWTVLYTVSYGYWGQGTQVTVSS,high polyreactivity
6,QVQLEESGGGLVQAGGSLRLSCAASGSTFTGYAMGWYRQAPGKERELVAAISISGGRTFYADSVKVRFTISRDNAKNTVYLQMNSLKPEDTAVYYCAAYLRGSKYSFDYWGQGTQVTVSS,high polyreactivity
7,QVQIVESGGGLVQAGGSLRLSCAASGLTFRSYTIGWYRHAPGKERELVAAISSGGSTYYADSVKGRFTISRDNAKNTVYLQMNSRKPEDTAVYFCAAPRGHGKYYSWGQGTQVTVSS,high polyreactivity
8,QVQLVESGGGLVQAGGSLRLSCAASGITYGYNTMGWYRQAPGKERELVADISRSGGRTYYADSVKARFTISRDNAKNTVYLQMNSLKPEDTAVYYCAAVSNSGHYYYWGQGTQVTVSS,high polyreactivity
9,QVQLVESGGGLVQAGGSLRLSCAASGLTSVTYAMGWYRQAPGKERELVAAITSRAGSTYYADSVKGRFTISRDNAKNTVYLQMNSLKPEDTAVYYCAKDIIRKVYAGYVGRYDYWGQGTQVTVSS,low polyreactivity
10,QVQLVESGGGLVQAGGSLRLSCAASGSIFTGYAMGWYRQAPGKERELVARITKRGGSTYYADSVKGRFTISRDNAKNTVYLQMNSLKPEDTAVYYCNADRKFPYGSYETHDYWGQGTQVTVSS,high polyreactivity
11,QVQLVESGGGLVQAGGSLRLSCAASGSIFYKYMGWSRQAPGKERELVAAITWSGGSTYYADSVKGRFTISRDNAKNTVYLQMNSLKPEDPAVYYCAARDYTRYGYGYWGQGTQVTVSS,high polyreactivity
12,QVQLVESGGGLVQAGGSLRLSCAASGRNFYYNAMGWYRQAPGKERELVASITGSGGSTYYADSVKGRFTISRDNAKNTVYLQMNSLKPEDTAVYYCAKREYLYPYYYVAKYDYWGQGTQVTVSS,low polyreactivity
13,QVQLVESGGGLVQAGGSLRLSCAASGFIFSYYAMGWYRQAPGKERELVAVISWSGGSTYYADSVKGRFTISRDNAKNTVYLQMNSLKPEDTAVYYCNAGYTYNRVIWPYYYWGQGTQVTVSS,high polyreactivity
14,QVQLLESGGGLVQAGGSLRLSCAASGRIFGYYTMGWYRQAPGKERELVAGITRRGGRTYYADSVKGRFTISRDNAKNTVYLEMNSLKPEDTAGYYCAVRSGVNFYYWGQGTQVTVSS,high polyreactivity
15,QVQLVESGGGLVQAGGSLRLSCAASGRIFSYYGMGWYRQAPGKERELVAAISTGGNTNYADSLKGRFTISRDNAKNTVYLQMNSLKPEDTAVYYCAAGFPYKFTYVCGYNHWGQGTQVTVSS,low polyreactivity
16,QVQLVESGGGLVQAGGSLRLSCAASGRIFYVYAMGWYRQAPGKERELVAAITWRGGTTYYADSVKGRFTISRDNAKNTVYLQMNSLKPEDTAVYYCNAKYFRSYYSIEYDYWGQGTQVTVSS,low polyreactivity
17,QVQLVESGGGLVQEGGSLRLSCAASGFIFGYYAMGWYRQAPGKERELVAAISFSDGITYYADSVKGRFTISRDNAKNTVYLQMNSLKPEDTAVYYCATEILDYYYGSEYDYWGQGTQVTVSS,high polyreactivity
18,QVQLVESGGGLVQAGGSLRLSCAASGSTFYFNAMGWYRQAPGKERELVAGITYSGDSTYYADSVKGRFTISRDNAKNTVYLQMNSLKPEDTAVYYCAADVDYDLDGDYWGQGTQVTVSS,low polyreactivity
19,QVQLGESGGVLVQAGGSLRLSCSASGSTFYSNAMGWYRQAPVKEREFVAAITGSGGSTYYADSVKGRFTISRDNAQNTVYLQMNSLKPEVTAVYYCAAGTRIYNSWIRFDYWGQGTQVTVSS,high polyreactivity
20,QVQLVESGGGLVQAGGSLRLSCAASGFTFVRYVMGWYRQAPGKERELVAAISRSGGSTHYADSVKGRFTISRDNAKNTVYLQMNSLKPEDTAVYYCADASPRWPGQGDYWGQGTQVTVSS,high polyreactivity
21,QFQLVESGGGLVQAGGSLRLSCSASGSIFVSNAMGRSRQAPGKERELVAAISSSGDSTYYADSVKGRFTISRDNAKNTFYVQMNSLKPEDNAVYYCAAVGPWWFPEYDYWGQGTQVTVSS,low polyreactivity

row,Sequence,polyreactivity (PSR sort gate)
1,QVQHVESGGGLVQAGGSLRLSCAASGSTFGGYTMGWSRQAPGTERELVASIRSGGSTYYADSVKGRFTISRDNAKNTVYLQMNSLKPEVTAVYYCAADGRRDRDYWGQGTQVTVSS,high polyreactivity
2,QVQLVESGGGLVQAGGSLRLSCAASGSTFRYYAMGWYRQEPGKERELVASITRGASTNYADSVKGRFTISRDNAKNTVYIQMNSLKPEDTAVYYCAADNYWHTFGGTDLRDDYWGQGTQVTVSS,low polyreactivity
3,QVQLVESGGGLLQAGGSLRLSCAASGSIFTAYAMGWYRQAPGKESELVAAIDDSGDSTYYADSVKGRFTISRDNAKHTVYLQMNSLKTEDTAVYYCKAEYRVNKEYDDWGQGTQVTVSS,low polyreactivity
4,QVQLVESGGGLVQAGGSLRLSCAASGRTFRSNTMGWYRQAPGKEREFVAVITYSAGSTYYADSVKGRFTISRDNAKNTVYLQMNSLKPEDTAVYYCAATSKYRGDYWGQGTQVTVSS,high polyreactivity
5,QVQLVESGGGLVQAGGSLRLSCAASGSIFDGYAMGWYRQAPGTERELVAGISGRGTRTYYADSVKGRFTISRDYAMNTVYLQMNSLKPEDTAVYYCNKAGYFHRLKYYYWGQGTQVTVSS,high polyreactivity
6,QVQLVESGGGLVQAGGSLRLRCAASGRTFELYAMGWYRQAPGKERALVAAITASGGTTYYADSVKGRFTISRDNAKNTVYLQMNSLKPEDTAVYYCAAEYSYYPFTDYDYWGQGTQVSVSS,high polyreactivity
7,QVQLVESGGGLVQAGGSLRLSCAASGFTFGANVMGWYRQAPGKERQLVAGITWSGDSTYYADSVKGRFTISRDNAKNTVYLQMNSLKPEDTAVYYCAADVYDGEYILDYDYWGQGTQVTVSS,low polyreactivity
8,QVQLVESGGGLVQAGGSLRLSCAASGRTFLPYAMGWYRQAPGKERELVAAITYSGGRTYYADSVKGRFTISRDNAKNTVYLQMNSLKPEDTAVYYCAASLWFGGGYWGLGTQVTVSS,high polyreactivity
9,QVQLVESGGGLVQAGGSHRLSCAASGFTINFYSMGWYRQAPGKERELVAAITASGGGSTYYADSVKGRFTISRDNAKNTVYLQMNSLKPEDTAVYYCNADYTGSFYTYDYWGQGTQVTVSS,low polyreactivity
10,QVQHVESGGGLVQAGGSLRLSCAASGRIFPYKAMGWYRQAPGKERELVAAISKSGVRTYYADSVKGRFTISRDNAKNTVYLQMNSLKPEDTAVYYCARGGYPGSAEYDYWGQGTQVTVSS,high polyreactivity
11,QVQLVESGGGLVQAGGSLRLSCAASGFTFAYYDMGWYRQAPGKERELVAAITWDGGSTYYADSVKGRFTISRDNAKNTVYLQMNSLKPEDTAVYYCAAPSGPYGYDYWGQGTQVTVSS,high polyreactivity
12,QVQLVESGGRLVQAGGSLRLSCAASGSTIAYNAMGWYIQAPGKERELVAANSKGGGSTYYADSVKGRFTISRDNAQNTVYLAMNSLKPAETAVYYCAAVSGYSTGGSRYRYNYWGQGTQVTVSS,high polyreactivity
13,QVQLVESGGGLVQAGGSLRLSCAASGSTFKYYAMGWYRQAPGKEREFVASINWSGVSTYYADSVKGRFTISRDNAKNTVYLQMNSLKPEDTAVYYCAARVRGKYDYWGQGTQVTVSS,high polyreactivity
14,QVQLVESGGGLVQAGGSLRLSCAASGSTFSGYAMGWYRQAPGKERELVAAITSGGGTYYADSVKGRFTISRDNAKNTVYLQMNSLKPEDTAVYYCAADGIARAYVLLDAYDFLYDYWGQGTQVTVSS,low polyreactivity
15,QVQLVESGGGLVQAGGSLRLSCAPSGITFWYYAMGWYRQAPGKERELVAAINKSGGRTYYADSVKGRFTISRDNAKNTVYLQMNSLKPEDTAVYYCAAPRSRSRTSRFDYWGQGTQVTVSS,high polyreactivity
16,QVQLVESGGGLVQAGGSLRLSCADSGSTLQVNAMGWYRQAPGKERELVATISFSGGSTYYADSVKGRFTISRDNAKNTVYLQMNSLNPEDTAVYYCNADSFVSWYNQFWYQATYDYWGQGTQVTVSS,low polyreactivity
17,QVQLVESGGGLVQAGGSLRLSCAASGSILKFNAMGWYRQAPGKERELVAAITRGTNTYYADSVKGRFTISRDNAKNTVYLQMNSLKPEDSAVYYCAARQPYNAFGYFYWGQGTQVTVSS,low polyreactivity
18,QVQLVETGGGLVQAGGSLRISCAASGRIFGWYAMGWYRQAPGKERELVAGINYGGGRTYYADSVKGRFTISRDNAKNTVYLQMNSLKPEDTAVYYCAAGISGHYYWGQGTQVTVSS,high polyreactivity
19,QVQLVESGGGLVQAGGSLRLSCAASGFIFNYYAMGWYRQAPGKERELVAAISPSGDNTYYADSVKGRFTISRDNAKNTVYLQMNSLKPEDTAVYYCNKVQGSWRVPYYYWGQGTQVTVSS,high polyreactivity
20,QVQLVESGGGLVQAGGSLRLSCASSGRTFAYNALGWYREAPGKERELVAAISASGGSTYYADSVKGRFTISRDNAKNTVYLQMNSLKPEDTAVYYCAAYVRSAYYAIHVDYWGQGTQVTVSA,low polyreactivity
